{"source": "patent EP4669352A1", "about": "(dated 2025)", "binders": {"B1": {"name": "EV42 (antibody, V domains shown)", "VH": "EVQLVESGPRLVKPSETLSLTCAVSGASITSNYWSWIRQPPGKGLEWIGRTPGSSGSTDYNPSLKSRVTISTDTSKNQFSLKLTSVTAADTAVYFCARRYTDSYYLYYFDFWSQGVLVTVSS", "VL": "QSALTQPPSVSGSPGQSVTISCTGTNSDIGSYKYVSWYQKHPGKAPKLVIYDVSQRPSGVSDRFSGSKSGNTASLTISGLQAEDEADYYCSSYAGINTFNVFGSGTKLTIL"}, "B2": {"name": "MV31 (antibody, V domains shown)", "VH": "EVQLAESGGGLVPPDGSLRLSCTASGFTFSNYWMYWFRQAPGKGLEWVASISGSRRNIDYSDSVKGRFTISRDNAKNTLFLQMNRLRGDDTAVYYCAREGETSTYFFDPWGQGVLVTASS", "VL": "QPVLTQPPTVSKSLGQSVTISCTGTSSDVGGYNYVSWYQQRPGKAPKLLIYEVTKRPSGVSDRFSGSKSGNTASLTISGLQAEDEADYYCSSYTTSNTYIFGTGTRLTVL"}, "B3": {"name": "MV7 (antibody, V domains shown)", "VH": "QEQLVQSGGGLAKPGGSLRISCAASGFVFSRSAMHWVRQAPGKGLEWVSGISGGGATYYADSVKGRFTISRDNSKNTFSLQMNSLRLEDTAVYYCAKDRRRSVASSYFDSWGQGVLVTVSS", "VL": "QSVLTQPQSVSVSPGQTARISCGGDNIGSKNVHWYQQKPPQAPVLVIYAGTERPSGIPERFSGSNSGNTATLTISGVEAGDEADYYCQVWDGTREHVLFGGGTRLTVL"}, "B4": {"name": "EV4 (antibody, V domains shown)", "VH": "QVQLQESGPGLVKPSETLSLTCAVSGGSISNNYWSWVRQAPGKGLEWIGRIYGSSGSSSYNPSLTGRLTISRDTSKNQLSLRLNSMTAADTAFYYCVRQYFGPRGAFDFWGQGLRVTVSS", "VL": "QPGLTQSPSASEAARKSVTISCSGSSSNIGSNSVSWYQQLPETAPKLLVYYNDRRASSVSDRFSGSKSGTSASLAISGLQTEDEADYYCAAWDNSLSGYVFGAGTRLTVL"}, "B5": {"name": "MV26 (antibody, V domains shown)", "VH": "EVQLAESGGGLVQPGGSLRLSCAASGFTFSNYWMYWFRQAPGKGLEWVSSISGSRRNIHYSDSVRGRFTVSRDNAKSTLSLQMNSLRPEDTAVYYCAREGETSTFYFGYWGQGVLVTASS", "VL": "KPMLTQPPSVSVSPGQTARITCGGDNLGTKNVQWYQQKSAQAPVVVIYDDGERPSGIPERFSGSKSGNVATLTISGVEAGDDADYYCQVWDGSSDHPIFGRGTRLTVL"}}, "key": {"[1]": {"biological_target": "T1, VACV A33 recombinant protein (vaccinia virus, UniProt P68616 89-185)"}, "H3 protein [2]": {"biological_target": "T2, H3 protein (vaccinia virus, UniProt P07240 1-278)", "T2 sequence": "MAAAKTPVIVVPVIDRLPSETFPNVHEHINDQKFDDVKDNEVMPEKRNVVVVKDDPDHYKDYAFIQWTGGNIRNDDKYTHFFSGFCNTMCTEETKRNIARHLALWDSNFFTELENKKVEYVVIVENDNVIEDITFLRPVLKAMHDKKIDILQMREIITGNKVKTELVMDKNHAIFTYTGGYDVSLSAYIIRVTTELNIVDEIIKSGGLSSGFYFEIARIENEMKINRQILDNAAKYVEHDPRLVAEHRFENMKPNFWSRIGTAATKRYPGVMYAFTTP", "assay": "ELISA on recombinant protein"}, "H3 protein [3]": {"biological_target": "T2, H3 protein", "assay": "ELISA on recombinant VACV surface proteins"}, "A27 protein": {"biological_target": "T3, A27 protein (vaccinia virus, UniProt P11258 1-110)", "T3 sequence": "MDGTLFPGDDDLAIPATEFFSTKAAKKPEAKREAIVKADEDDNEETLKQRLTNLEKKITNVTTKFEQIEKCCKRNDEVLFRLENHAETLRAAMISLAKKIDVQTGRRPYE", "assay": "ELISA on recombinant VACV surface proteins"}, "L1 protein": {"biological_target": "T4, L1 protein (vaccinia virus, UniProt P07612 1-183)", "T4 sequence": "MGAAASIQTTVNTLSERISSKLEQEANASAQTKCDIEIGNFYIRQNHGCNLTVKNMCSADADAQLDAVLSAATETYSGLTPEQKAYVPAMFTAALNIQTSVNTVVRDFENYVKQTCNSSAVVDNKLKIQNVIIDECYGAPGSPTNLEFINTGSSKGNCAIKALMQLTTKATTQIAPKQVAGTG", "assay": "ELISA on recombinant VACV surface proteins"}, "B5 protein": {"biological_target": "B5 protein (vaccinia virus, UniProt Q01227 18-279)", "assay": "ELISA on recombinant VACV surface proteins"}, "[4]": {"biological_target": "T1, VACV A33 recombinant protein", "assay": "ELISA on recombinant VACV surface proteins"}}}
{"binder": "B1", "values": [{"measurement": "Kd", "setting": "[1]", "value": 0.095, "unit": "nM"}]}
{"binder": "B2", "values": [{"measurement": "binding result", "setting": "H3 protein [2]", "value": "binds"}]}
{"binder": "B3", "values": [{"measurement": "binding result", "setting": "H3 protein [2]", "value": "binds"}]}
{"binder": "B4", "values": [{"measurement": "binding result", "setting": "H3 protein [3]", "value": "no binding"}, {"measurement": "binding result", "setting": "A27 protein", "value": "no binding"}, {"measurement": "binding result", "setting": "L1 protein", "value": "no binding"}, {"measurement": "binding result", "setting": "B5 protein", "value": "no binding"}, {"measurement": "binding result", "setting": "[4]", "value": "no binding"}]}
{"binder": "B5", "values": [{"measurement": "binding result", "setting": "H3 protein [2]", "value": "binds"}]}
